Laboratory results as given in US20230174608A1 (published 2023).
Substitutions are numbered along the chain they refer to. *1 amine or outer side, *2 acyl side, *3 side chain or, on linkers, in order; H or OH if unused. Where no end group is shown, it is not given here. Side-chain parts run from the residue outwards. [ ]: non-standard residue; d: D form. The star is where a group is joined. C18 diacid = O=C(O)CCCCCCCCCCCCCCCCC(=O)*; γGlu = O=C(O)[C@H](CCC(=O)[*:2])N[*:1]; AEEA = NCCOCCOCC(=O)O; Aib = CC(C)(N)C(=O)O

B1: dgc012 (peptide)
peptide: H[dS]QGTFTSDYSKYLEERAAK([AEEA-AEEA-γGlu-C18 diacid])EFVAWLEGG-NH2
modifications: N-terminus assumed
SMILES: CC(C)C[C@H](NC(=O)[C@H](Cc1c[nH]c2ccccc12)NC(=O)[C@H](C)NC(=O)[C@@H](NC(=O)[C@H](Cc1ccccc1)NC(=O)[C@H](CCC(=O)O)NC(=O)[C@H](CCCCNC(=O)COCCOCCNC(=O)COCCOCCNC(=O)CC[C@H](NC(=O)CCCCCCCCCCCCCCCCC(=O)O)C(=O)O)NC(=O)[C@H](C)NC(=O)[C@H](C)NC(=O)[C@H](CCCNC(=N)N)NC(=O)[C@H](CCC(=O)O)NC(=O)[C@H](CCC(=O)O)NC(=O)[C@H](CC(C)C)NC(=O)[C@H](Cc1ccc(O)cc1)NC(=O)[C@H](CCCCN)NC(=O)[C@H](CO)NC(=O)[C@H](Cc1ccc(O)cc1)NC(=O)[C@H](CC(=O)O)NC(=O)[C@H](CO)NC(=O)[C@@H](NC(=O)[C@H](Cc1ccccc1)NC(=O)[C@@H](NC(=O)CNC(=O)[C@H](CCC(N)=O)NC(=O)[C@@H](CO)NC(=O)[C@@H](N)Cc1c[nH]cn1)[C@@H](C)O)[C@@H](C)O)C(C)C)C(=O)N[C@@H](CCC(=O)O)C(=O)NCC(=O)NCC(N)=O
B2: dgc008 (peptide)
peptide: HXQGTFTSDYSKYLEERAAKEFIAWLESGG
HELM: PEPTIDE1{H.[Aib].Q.G.T.F.T.S.D.Y.S.K.Y.L.E.E.R.A.A.K.E.F.I.A.W.L.E.S.G.G.[am]}|PEPTIDE2{[CCCCCCCCCCCCCCCC(=O)[*:2]].[gGlu]}$PEPTIDE1,PEPTIDE2,20:R3-2:R2$$$V2.0; N-terminus assumed
SMILES: CCCCCCCCCCCCCCCC(=O)N[C@@H](CCC(=O)NCCCC[C@H](NC(=O)[C@H](C)NC(=O)[C@H](C)NC(=O)[C@H](CCCNC(=N)N)NC(=O)[C@H](CCC(=O)O)NC(=O)[C@H](CCC(=O)O)NC(=O)[C@H](CC(C)C)NC(=O)[C@H](Cc1ccc(O)cc1)NC(=O)[C@H](CCCCN)NC(=O)[C@H](CO)NC(=O)[C@H](Cc1ccc(O)cc1)NC(=O)[C@H](CC(=O)O)NC(=O)[C@H](CO)NC(=O)[C@@H](NC(=O)[C@H](Cc1ccccc1)NC(=O)[C@@H](NC(=O)CNC(=O)[C@H](CCC(N)=O)NC(=O)C(C)(C)NC(=O)[C@@H](N)Cc1c[nH]cn1)[C@@H](C)O)[C@@H](C)O)C(=O)N[C@@H](CCC(=O)O)C(=O)N[C@@H](Cc1ccccc1)C(=O)N[C@H](C(=O)N[C@@H](C)C(=O)N[C@@H](Cc1c[nH]c2ccccc12)C(=O)N[C@@H](CC(C)C)C(=O)N[C@@H](CCC(=O)O)C(=O)N[C@@H](CO)C(=O)NCC(=O)NCC(N)=O)[C@@H](C)CC)C(=O)O
B3: dgc007 (peptide)
peptide: B2 peptide with E15D
HELM: PEPTIDE1{H.[Aib].Q.G.T.F.T.S.D.Y.S.K.Y.L.D.E.R.A.A.K.E.F.I.A.W.L.E.S.G.G.[am]}|PEPTIDE2{[CCCCCCCCCCCCCCCC(=O)[*:2]].[gGlu]}$PEPTIDE1,PEPTIDE2,20:R3-2:R2$$$V2.0; N-terminus assumed
SMILES: CCCCCCCCCCCCCCCC(=O)N[C@@H](CCC(=O)NCCCC[C@H](NC(=O)[C@H](C)NC(=O)[C@H](C)NC(=O)[C@H](CCCNC(=N)N)NC(=O)[C@H](CCC(=O)O)NC(=O)[C@H](CC(=O)O)NC(=O)[C@H](CC(C)C)NC(=O)[C@H](Cc1ccc(O)cc1)NC(=O)[C@H](CCCCN)NC(=O)[C@H](CO)NC(=O)[C@H](Cc1ccc(O)cc1)NC(=O)[C@H](CC(=O)O)NC(=O)[C@H](CO)NC(=O)[C@@H](NC(=O)[C@H](Cc1ccccc1)NC(=O)[C@@H](NC(=O)CNC(=O)[C@H](CCC(N)=O)NC(=O)C(C)(C)NC(=O)[C@@H](N)Cc1c[nH]cn1)[C@@H](C)O)[C@@H](C)O)C(=O)N[C@@H](CCC(=O)O)C(=O)N[C@@H](Cc1ccccc1)C(=O)N[C@H](C(=O)N[C@@H](C)C(=O)N[C@@H](Cc1c[nH]c2ccccc12)C(=O)N[C@@H](CC(C)C)C(=O)N[C@@H](CCC(=O)O)C(=O)N[C@@H](CO)C(=O)NCC(=O)NCC(N)=O)[C@@H](C)CC)C(=O)O
B4: dgc005 (peptide)
peptide: B2 peptide with S28A
HELM: PEPTIDE1{H.[Aib].Q.G.T.F.T.S.D.Y.S.K.Y.L.E.E.R.A.A.K.E.F.I.A.W.L.E.A.G.G.[am]}|PEPTIDE2{[CCCCCCCCCCCCCCCC(=O)[*:2]].[gGlu].[gGlu]}$PEPTIDE1,PEPTIDE2,20:R3-3:R2$$$V2.0; N-terminus assumed
SMILES: CCCCCCCCCCCCCCCC(=O)N[C@@H](CCC(=O)N[C@@H](CCC(=O)NCCCC[C@H](NC(=O)[C@H](C)NC(=O)[C@H](C)NC(=O)[C@H](CCCNC(=N)N)NC(=O)[C@H](CCC(=O)O)NC(=O)[C@H](CCC(=O)O)NC(=O)[C@H](CC(C)C)NC(=O)[C@H](Cc1ccc(O)cc1)NC(=O)[C@H](CCCCN)NC(=O)[C@H](CO)NC(=O)[C@H](Cc1ccc(O)cc1)NC(=O)[C@H](CC(=O)O)NC(=O)[C@H](CO)NC(=O)[C@@H](NC(=O)[C@H](Cc1ccccc1)NC(=O)[C@@H](NC(=O)CNC(=O)[C@H](CCC(N)=O)NC(=O)C(C)(C)NC(=O)[C@@H](N)Cc1c[nH]cn1)[C@@H](C)O)[C@@H](C)O)C(=O)N[C@@H](CCC(=O)O)C(=O)N[C@@H](Cc1ccccc1)C(=O)N[C@H](C(=O)N[C@@H](C)C(=O)N[C@@H](Cc1c[nH]c2ccccc12)C(=O)N[C@@H](CC(C)C)C(=O)N[C@@H](CCC(=O)O)C(=O)N[C@@H](C)C(=O)NCC(=O)NCC(N)=O)[C@@H](C)CC)C(=O)O)C(=O)O
B5: dgc010 (peptide)
peptide: B2 peptide
HELM: PEPTIDE1{H.[Aib].Q.G.T.F.T.S.D.Y.S.K.Y.L.E.E.R.A.A.K.E.F.I.A.W.L.E.S.G.G.[am]}|PEPTIDE2{[CCCCCCCCCCCCCCCC(=O)[*:2]].[gGlu].[gGlu]}$PEPTIDE1,PEPTIDE2,20:R3-3:R2$$$V2.0; N-terminus assumed
SMILES: CCCCCCCCCCCCCCCC(=O)N[C@@H](CCC(=O)N[C@@H](CCC(=O)NCCCC[C@H](NC(=O)[C@H](C)NC(=O)[C@H](C)NC(=O)[C@H](CCCNC(=N)N)NC(=O)[C@H](CCC(=O)O)NC(=O)[C@H](CCC(=O)O)NC(=O)[C@H](CC(C)C)NC(=O)[C@H](Cc1ccc(O)cc1)NC(=O)[C@H](CCCCN)NC(=O)[C@H](CO)NC(=O)[C@H](Cc1ccc(O)cc1)NC(=O)[C@H](CC(=O)O)NC(=O)[C@H](CO)NC(=O)[C@@H](NC(=O)[C@H](Cc1ccccc1)NC(=O)[C@@H](NC(=O)CNC(=O)[C@H](CCC(N)=O)NC(=O)C(C)(C)NC(=O)[C@@H](N)Cc1c[nH]cn1)[C@@H](C)O)[C@@H](C)O)C(=O)N[C@@H](CCC(=O)O)C(=O)N[C@@H](Cc1ccccc1)C(=O)N[C@H](C(=O)N[C@@H](C)C(=O)N[C@@H](Cc1c[nH]c2ccccc12)C(=O)N[C@@H](CC(C)C)C(=O)N[C@@H](CCC(=O)O)C(=O)N[C@@H](CO)C(=O)NCC(=O)NCC(N)=O)[C@@H](C)CC)C(=O)O)C(=O)O
B6: dgc004 (peptide)
peptide: B2 peptide with S28A
HELM: PEPTIDE1{H.[Aib].Q.G.T.F.T.S.D.Y.S.K.Y.L.E.E.R.A.A.K.E.F.I.A.W.L.E.A.G.G.[am]}|PEPTIDE2{[CCCCCCCCCCCCCCCC(=O)[*:2]].[gGlu]}$PEPTIDE1,PEPTIDE2,20:R3-2:R2$$$V2.0; N-terminus assumed
SMILES: CCCCCCCCCCCCCCCC(=O)N[C@@H](CCC(=O)NCCCC[C@H](NC(=O)[C@H](C)NC(=O)[C@H](C)NC(=O)[C@H](CCCNC(=N)N)NC(=O)[C@H](CCC(=O)O)NC(=O)[C@H](CCC(=O)O)NC(=O)[C@H](CC(C)C)NC(=O)[C@H](Cc1ccc(O)cc1)NC(=O)[C@H](CCCCN)NC(=O)[C@H](CO)NC(=O)[C@H](Cc1ccc(O)cc1)NC(=O)[C@H](CC(=O)O)NC(=O)[C@H](CO)NC(=O)[C@@H](NC(=O)[C@H](Cc1ccccc1)NC(=O)[C@@H](NC(=O)CNC(=O)[C@H](CCC(N)=O)NC(=O)C(C)(C)NC(=O)[C@@H](N)Cc1c[nH]cn1)[C@@H](C)O)[C@@H](C)O)C(=O)N[C@@H](CCC(=O)O)C(=O)N[C@@H](Cc1ccccc1)C(=O)N[C@H](C(=O)N[C@@H](C)C(=O)N[C@@H](Cc1c[nH]c2ccccc12)C(=O)N[C@@H](CC(C)C)C(=O)N[C@@H](CCC(=O)O)C(=O)N[C@@H](C)C(=O)NCC(=O)NCC(N)=O)[C@@H](C)CC)C(=O)O

molecular target: GLP-1 receptor (GLP-1R), stably expressed on HEK293 cells; test: cell-based or functional assay

Row | Binder | GLP-1R (nM EC50), receptor-mediated cAMP production in HEK293 cells [nM]
1 | H[Aib]QGTFTSDYSKYLEERAAKEFIAWLEAGG-NH2 (not fully specified (residue 20)) [dgc011] | 0.955
2 | B1 | 0.044
3 | B2 | 0.742
4 | B3 | 0.28
5 | B4 | 0.484
6 | B5 | 0.537
7 | H[Aib]QGTFTSDYSKYLEERAAKEFIAWLEAGG-NH2 (not fully specified (residue 20)) [dgc006] | 0.472
8 | B6 | 0.113
9 | H[Aib]QGTFTSDYSKYLEERAAKEFIAWLESGG-NH2 (not fully specified (residue 20); printed as HAibQGTFTSDYSKYLEERAAK*EFIAWLESGG) [dgc009] | 0.092

molecular target: Glucagon receptor (GCGR), stably expressed on HEK293 cells; test: cell-based or functional assay

Row | Binder | GCGR (nM EC50), receptor-mediated cAMP production in HEK293 cells [nM]
10 | H[Aib]QGTFTSDYSKYLEERAAKEFIAWLEAGG-NH2 (not fully specified (residue 20)) [dgc011] | 4.13
11 | B1 | 2.17
12 | B2 | 2.03
13 | B3 | 0.971
14 | B4 | 1.16
15 | B5 | 0.614
16 | H[Aib]QGTFTSDYSKYLEERAAKEFIAWLEAGG-NH2 (not fully specified (residue 20)) [dgc006] | 6.41
17 | B6 | 5.84
18 | H[Aib]QGTFTSDYSKYLEERAAKEFIAWLESGG-NH2 (not fully specified (residue 20); printed as HAibQGTFTSDYSKYLEERAAK*EFIAWLESGG) [dgc009] | 8.22
